Experimental data published in US20120201854A1 (INDUSTRY FOUNDATION OF CHONNAM NATIONAL UNIVERSITY, published 2012).
Positions count from the first letter of the chain named. Names may count otherwise.

B1: flagellin mutant (N153W) of V. vulnificus flagellin FlaB (ligand)
chain: MAVNVNTNVAAMTAQRYLNNANSAQQTSMERLSSGFKINSAKDDAAGLQISNRLNVQSRGLDVAVRNANDGISIAQTAEGAMNETTNILQRMRDLSLQSANGSNSKSERVAIQEEVTALNDELNRIAETTSFGGNKLLNGTYGTKAMQIGADWGEAVMLSLKDMRSDNVMMGGVSYQAEEGKDKNWNVAAGDNDLTIALTDSFGNEQEIEINAKAGDDIEELATYINGQTDLVKASVGEGGKLQIFAGNNKVQGEIAFSGSLAGELGLGEGKNVTVDTIDVTTVQGAQESVAIVDAALKYVDSHRAELGAFQNRFNHAISNLDNINENVNASKSRIKDTDFAKETTQLTKTQILSQASSSILAQAKQAPNSALSLLG
notes: Recombinant, from pTYB12 intein fusion in E. coli ER2566
B2: flagellin mutant (D70A) of V. vulnificus flagellin FlaB (ligand)
chain: B1 chain with D70A, W153N
notes: Recombinant, expressed in E. coli ER2566 from pTYB12 as intein fusion, released with DTT
B3: flagellin mutant (E108A) of V. vulnificus flagellin FlaB (ligand)
chain: B1 chain with E108A, W153N
notes: as for B1
B4: flagellin mutant (S103W) of V. vulnificus flagellin FlaB (ligand)
chain: B1 chain with S103W, W153N
notes: as for B1
B5: flagellin mutant (D70A/N135D) of V. vulnificus flagellin FlaB (ligand)
chain: B1 chain with D70A, N135D, W153N
notes: Recombinant, from pTYB12 intein fusion in E. coli ER2566; also called dual site-directed mutant flagellin
B6: flagellin mutant (L97W) of V. vulnificus flagellin FlaB (ligand)
chain: B1 chain with L97W, W153N
notes: as for B1
B7: flagellin mutant (A151W) of V. vulnificus flagellin FlaB (ligand)
chain: B1 chain with A151W, W153N
notes: as for B1
B8: flagellin mutant (N101A) of V. vulnificus flagellin FlaB (ligand)
chain: B1 chain with N101A, W153N
notes: as for B1
B9: flagellin mutant (R93A) of V. vulnificus flagellin FlaB (ligand)
chain: B1 chain with R93A, W153N
notes: as for B1
B10: flagellin mutant (V291W) of V. vulnificus flagellin FlaB (ligand)
chain: B1 chain with W153N, V291W
notes: as for B1
B11: flagellin mutant (N135D) of V. vulnificus flagellin FlaB (ligand)
chain: B1 chain with N135D, W153N
notes: as for B1

The binders below were run against toll-like receptor-5 (hTLR5) expressed in 293T cells from p3xFlag-hTLR5 plasmid (human (printed only as hTLR5), UniProt O60602 21-858) (assay: cell-based or functional assay).
toll-like receptor-5 (hTLR5) expressed in 293T cells from p3xFlag-hTLR5 plasmid, sequence (O60602 21-858): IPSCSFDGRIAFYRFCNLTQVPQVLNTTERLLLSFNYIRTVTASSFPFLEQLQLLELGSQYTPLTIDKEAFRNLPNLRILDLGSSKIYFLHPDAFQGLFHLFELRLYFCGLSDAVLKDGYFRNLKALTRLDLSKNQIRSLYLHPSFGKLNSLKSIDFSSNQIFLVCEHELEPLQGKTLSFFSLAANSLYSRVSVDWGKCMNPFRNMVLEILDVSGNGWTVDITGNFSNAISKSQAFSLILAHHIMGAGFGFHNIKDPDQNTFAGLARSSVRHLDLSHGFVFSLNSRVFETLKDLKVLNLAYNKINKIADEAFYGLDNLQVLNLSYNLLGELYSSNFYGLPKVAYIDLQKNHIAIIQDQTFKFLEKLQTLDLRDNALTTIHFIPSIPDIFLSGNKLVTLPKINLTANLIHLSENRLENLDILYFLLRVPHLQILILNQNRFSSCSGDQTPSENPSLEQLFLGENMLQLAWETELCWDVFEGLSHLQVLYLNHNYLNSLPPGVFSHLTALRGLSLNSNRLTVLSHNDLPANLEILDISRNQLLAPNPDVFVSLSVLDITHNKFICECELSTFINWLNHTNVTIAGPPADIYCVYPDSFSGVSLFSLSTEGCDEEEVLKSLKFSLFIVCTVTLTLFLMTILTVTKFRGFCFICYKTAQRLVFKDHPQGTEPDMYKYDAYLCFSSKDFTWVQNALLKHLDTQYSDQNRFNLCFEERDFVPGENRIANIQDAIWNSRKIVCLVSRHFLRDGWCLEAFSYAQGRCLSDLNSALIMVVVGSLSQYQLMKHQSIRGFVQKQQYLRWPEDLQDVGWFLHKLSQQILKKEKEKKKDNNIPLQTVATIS

Row | Binder | increase in TLR5-mediated NF-κB transcription activity (luciferase reporter, 293T cells, 20 ng/ml) compared to PBS control [fold]
1 | B1 | ~24.5
2 | B2 | ~24.6
3 | B3 | ~21
4 | B4 | ~23.7
5 | B5 | ~14.9
6 | B6 | ~25
7 | B7 | ~22.5
8 | B8 | ~22.6
9 | B9 | ~14
10 | B10 | ~16.6
11 | B11 | ~21.7

Target: the molecule itself
Test: native-gel electrophoresis, self-association in aqueous solution

Row | Binder | binding result
12 | B1 | binds
13 | B2 | binds
14 | B3 | binds
15 | B4 | binds
16 | B5 | binds
17 | B6 | binds
18 | B7 | binds
19 | B8 | binds
20 | B9 | binds
21 | B10 | binds
22 | B11 | binds
